PMC6855462

Biological target: FL H1#5070 (full-length HA of H1 A/Brisbane/59/2007, C-terminally modified with a sortase A LPXTG recognition sequence, biotinylated HA probe) (influenza A virus H1 A/Brisbane/59/2007)
Experiment: SEC-MALS; Superdex 200 10-300 GL column, after sortase-mediated biotinylation; trimeric fractions collected; stored in 20mM Tris, 150mM NaCl, pH7.8

FL H1#5070 (full-length HA of H1 A/Brisbane/59/2007, C-terminally modified with a sortase A LPXTG recognition sequence, biotinylated HA probe) (natural protein)
stoichiometry N: 3
